Test results reported in patent publication US20190248916A1 (Hoffmann-La Roche, published 2019).
“And” between values parts separate entries of the source, which are not always exact repeats. Equal entries are not always repeated. Where two headings read alike, the source gives them in different places.

How the values were obtained:
[1] = molecular target: T1, HLA-A2/WT1RMF complex on cells (human); experiment: flow cytometry on peptide-pulsed T2 cells, anti-human Fc secondary, MFI
T1 construct: also called RMF peptide-pulsed T2 cells; SKM-1 cells
Source text: (§1) We first measured the binding specificity on peptide-pulsed T2 cells by the IgG binders generated from phage display by flow cytometry. […] Cells were acquired on FACS LSR II (BD), and data are presented as mean fluorescence intensity (MFI) of PE in Graphpad Prism.

[2] = molecular target: HLA-A2 with MED13L peptide … on peptide-pulsed T2 cells (human); experiment: as above
Source text: as §1

CD3 = molecular target: T2, CD3 (Homo sapiens (Human), UniProt P07766 23-126); experiment: method not stated
T2 construct: also called human CD3

[3] = molecular target: T3, HLA-A2/WT1VLD complex (soluble) (human); experiment: SPR, pMHC captured by anti-His
T3 construct: also called HLA-A02/WT1VLD pMHC; HLA-A02/VLD pMHC
Procedure: (§2) For determination of avidity and specificity of the HLA-A2/WT1×CD3 bispecific antibodies to HLA-A2/WT1RMF, SPR experiments were again performed at 25° C. on a Biacore T200 with HBS-EP as running buffer (0.01 M HEPES pH 7.4, 0.15 M NaCl, 0.005% Surfactant P20 (GE Healthcare)). […] The HLA-A2/WT1RMF or HLA-A2/WT1VLD was captured for 30 sec and 10 μl/min at 5 or 10 nM (for the bispecific antibody or IgG measurement, respectively). […] The dissociation phase was monitored for 240 sec and triggered by switching from the sample solution to HBS-EP. The chip surface was regenerated after every cycle using an injection of 10 mM glycine pH 2 for 60 sec. Bulk refractive index differences were corrected for by subtracting the response obtained on the reference flow cell (which contains the anti-His antibody, but without HLA-A2/WT1RMF captured on it). Even though it is a 2:1 interaction (analyte is bivalent) the affinity constants were derived from the kinetic rate constants by fitting to a 1:1 Langmuir binding using the BIAeval software (GE Healthcare).

[4] = molecular target: T4, HLA-A2/WT1RMF complex (soluble) (human); experiment: SPR, antibody captured (anti-human Fc), pMHC in solution; affinity
T4 construct: also called HLA-A02/WT1RMF pMHC; HLA-A02/RMF pMHC
Procedure: The bispecific constructs were captured for 30 s at 5 nM. […] The dissociation phase was monitored for 120 s and triggered by switching from the sample solution to HBS-EP. The chip surface was regenerated after every cycle using an injection of 3M MgCl₂ at 10 μl/min for 30 sec. Bulk refractive index differences were corrected for by subtracting the response obtained on the reference flow cell which contains the anti-human Fc antibody, but without bispecific construct captured on it. The affinity constants were derived from the kinetic rate constants by fitting to a 1:1 Langmuir binding using the BIAeval software (GE Healthcare).

[5] = molecular target: T4, HLA-A2/WT1RMF complex (soluble); experiment: SPR, pMHC captured (anti-His), bivalent antibody in solution; avidity, average
Procedure: as §2

[6] = molecular target: HLA-A2 on unpulsed T2 cells (human); experiment: flow cytometry on unpulsed T2 cells, anti-human IgG-Fc PE secondary, MFI
[7] = molecular target: T1, HLA-A2/WT1RMF complex on cells; experiment: flow cytometry on peptide-pulsed T2 cells, anti-human IgG-Fc PE secondary, MFI
Source text: as §1

[8] = molecular target: T5, HLA-A2/WT1VLD complex on VLD peptide-pulsed T2 cells (human); experiment: as above
Source text: as §1

[9] = molecular target: T4, HLA-A2/WT1RMF complex (soluble); experiment: SPR, pMHC captured (anti-His), bivalent antibody in solution; apparent KD (avidity), average
Procedure: as §2

[10] = molecular target: T1, HLA-A2/WT1RMF complex on cells; experiment: flow cytometry on peptide-pulsed T2 cells, anti-human IgG-Fc PE secondary, MFI; remark: listed apart in the source
Source text: as §1

[11] = molecular target: T5, HLA-A2/WT1VLD complex on VLD …; experiment: as above; remark: listed apart in the source
Source text: as §1

[12] = molecular target: HLA-A2 on unpulsed T2 cells (human); experiment: flow cytometry on unpulsed T2 cells, anti-human IgG-Fc PE secondary, MFI; remark: listed apart in the source
Source text: (§3) Cells were acquired on FACS LSR II (BD), and data are presented as mean fluorescence intensity (MFI) of PE in Graphpad Prism.

[13] = molecular target: T1, HLA-A2/WT1RMF complex on cells; experiment: flow cytometry on peptide-pulsed T2 cells, anti-human IgG-Fc PE secondary, MFI; remark: listed apart in the source
Source text: as §1

[14] = molecular target: T5, HLA-A2/WT1VLD complex on VLD …; experiment: as above; remark: listed apart in the source
Source text: as §1

[15] = molecular target: HLA-A2 on unpulsed T2 cells (human); experiment: flow cytometry on unpulsed T2 cells, anti-human IgG-Fc PE secondary, MFI; remark: listed apart in the source
Source text: as §3

[16] = molecular target: T1, HLA-A2/WT1RMF complex on cells; experiment: flow cytometry on peptide-pulsed T2 cells, anti-human IgG-Fc PE secondary, MFI; remark: listed apart in the source
Source text: as §1

[17] = molecular target: T5, HLA-A2/WT1VLD complex on VLD …; experiment: as above; remark: listed apart in the source
Source text: as §1

[18] = molecular target: T1, HLA-A2/WT1RMF complex on cells; experiment: as above; remark: listed apart in the source
Source text: as §1

[19] = molecular target: T5, HLA-A2/WT1VLD complex on VLD …; experiment: as above; remark: listed apart in the source
Source text: as §1

[20] = molecular target: T1, HLA-A2/WT1RMF complex on cells; experiment: as above; remark: listed apart in the source
Source text: as §1

[21] = molecular target: T5, HLA-A2/WT1VLD complex on VLD …; experiment: as above; remark: listed apart in the source
Source text: as §1

[22] = molecular target: T5, HLA-A2/WT1VLD complex on VLD …; experiment: as above; remark: listed apart in the source
Source text: as §1

B1: ESK1-TCB (bispecific antibody, V domains shown)
VH 1: QMQLVQSGAEVKEPGESLRISCKGSGYSFTNFWISWVRQMPGKGLEWMGRVDPGYSYSTYSPSFQGHVTISADKSTSTAYLQWNSLKASDTAMYYCARVQYSGYYDWFDPWGQGTLVTVSS
VL 1: not shown
VH 2: not shown
VL 2: QAVVTQEPSLTVSPGGTVTLTCGSSTGAVTTSNYANWVQEKPGQAFRGLIGGTNKRAPGTPARFSGSLLGGKAALTLSGAQPEDEAEYYCALWYSNLWVFGGGTKLTVL
[1]
  EC50 (read off the curve): ~1 µg/mL
[2]
  EC50 (read off the curve): ~0.3 µg/mL

B2: CD3 binder CH2527 (antibody, V domains shown)
VH: not shown
VL: QAVVTQEPSLTVSPGGTVTLTCGSSTGAVTTSNYANWVQEKPGQAFRGLIGGTNKRAPGTPARFSGSLLGGKAALTLSGAQPEDEAEYYCALWYSNLWVFGGGTKLTVL
CD3
  Kd: 85 to 130 nM

B3: 11D06-huIgG1 (antibody, V domains shown)
VH: QVQLVQSGAEVKKPGSSVKVSCKASGGTFSSYAISWVRQAPGQGLEWMGGIIPIFGTANYAQKFQGRVTITADKSTSTAYMELSSLRSEDTAVYYCARSIELWWGGFDYWGQGTTVTVSS
VL: DIQMTQSPSTLSASVGDRVTITCRASQSISSWLAWYQQKPGKAPKLLIYDASSLESGVPSRFSGSGSGTEFTLTIGSLQPDDFATYYCQQYEDYTTFGQGTKVEIK
notes: also called 11D06-IgG; 11D06 IgG
[3]
  binding result: no binding (tested: 1.23 to 100 nM)
[4]
  Kd: 35 nM and 34 nM
  koff: 0.0378 s⁻¹ and 0.0357 s⁻¹
  kon: 1.08e+06 M⁻¹ s⁻¹ and 1.04e+06 M⁻¹ s⁻¹
[5]
  koff: 0.00181 s⁻¹
  kon: 2.97e+06 M⁻¹ s⁻¹
[6]
  binding result: no binding (tested: 10 µg/ml)
[7]
  EC50 (read off the curve): ~0.06 µg/mL
[8]
  binding result: no binding (tested: 10 µg/ml)
[9]
  Kd: 0.61 nM

B4: 11B09-IgG (antibody, V domains shown)
VH: QVQLVQSGAEVKKPGSSVKVSCKASGGTFSSYAISWVRQAPGQGLEWMGGIIPIFGTANYAQKFQGRVTITADKSTSTAYMELSSLRSEDTAVYYCARVPGRWYGAMDYWGQGTTVTVSS
VL: DIQMTQSPSTLSASVGDRVTITCRASQSISSWLAWYQQKPGKAPKLLIYDASSLESGVPSRFSGSGSGTEFTLTISSLQPDDFATYYCQQEDDYPLTFGQGTKVEIK
[10]
  binding result: no binding (tested: 1 µg/ml)
[11]
  EC50 (read off the curve): ~0.02 µg/mL

B5: 5E11-IgG (antibody, V domains shown)
VH: QVQLVQSGAEVKKPGSSVKVSCKASGGTFSSYAISWVRQAPGQGLEWMGGIIPIFGTANYAQKFQGRVTITADKSTSTAYMELSSLRSEDTAVYYCARSSYDLYSFDYWGQGTTVTVSS
VL: DIQMTQSPSTLSASVGDRVTITCRASQSISSWLAWYQQKPGKAPKLLIYDASSLESGVPSRFSGSGSGTEFTLTISSLQPDDFATYYCQQYSFPPMITFGQGTKVEIK
[12]
  binding result: no binding (tested: 10 µg/ml)
[13]
  EC50 (read off the curve): ~0.7 µg/mL
[14]
  binding result: no binding (tested: 10 µg/ml)

B6: 33H09-huIgG1 (antibody, V domains shown)
VH: QVQLVQSGAEVKKPGSSVKVSCKASGGTFSSYAISWVRQAPGQGLEWMGGIIPIFGTANYAQKFQGRVTITADKSTSTAYMELSSLRSEDTAVYYCARGSYDLFSLDYWGQGTTVTVSS
VL: DIQMTQSPSTLSASVGDRVTITCRASQSISSWLAWYQQKPGKAPKLLIYDASSLESGVPSRFSGSGSGTEFTLTISSLQPDDFATYYCQQYYDGITFGQGTKVEIK
notes: also called 33H09-IgG
[3]
  binding result: no binding (tested: 1.23 to 100 nM)
[4]
  Kd: 70 nM and 69 nM
  koff: 0.116 s⁻¹ and 0.124 s⁻¹
  kon: 1.67e+06 M⁻¹ s⁻¹ and 1.8e+06 M⁻¹ s⁻¹
[5]
  koff: 0.00357 s⁻¹
  kon: 4.74e+06 M⁻¹ s⁻¹
[15]
  binding result: no binding (tested: 1 µg/ml)
[16]
  EC50 (read off the curve): ~0.06 µg/mL
[17]
  binding result: no binding (tested: 1 µg/ml)
[9]
  Kd: 0.75 nM

B7: 13B04-IgG (antibody, V domains shown)
VH: EVQLLESGPGLVKPSETLSLTCTVSGGSISSYYWSWIRQPPGKGLEWIGYIYYSGSTNYNPSLKSRVTISVDTSKNQFSLKLSSVTAADTAVYYCARVSYNGLDYWGQGTLVTVSS
VL: DIQMTQSPSTLSASVGDRVTITCRASQSISSWLAWYQQKPGKAPKLLIYDASSLESGVPSRFSGSGSGTEFTLTISSLQPDDFATYYCQQYNMWNPVTFGQGTKVEIK
[18]
  binding result: no binding (tested: 1 µg/ml)
[19]
  EC50 (read off the curve): ~0.06 µg/mL

B8: 5C01-IgG (antibody, V domains shown)
VH: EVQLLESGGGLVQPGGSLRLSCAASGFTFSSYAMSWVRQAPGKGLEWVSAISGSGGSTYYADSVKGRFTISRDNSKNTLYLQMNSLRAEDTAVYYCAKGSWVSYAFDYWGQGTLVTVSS
VL: DIQMTQSPSTLSASVGDRVTITCRASQSISSWLAWYQQKPGKAPKLLIYDASSLESGVPSRFSGSGSGTEFTLTISSLQPDDFATYYCQQYSIWFPYTFGQGTKVEIK
[20]
  binding result: no binding (tested: 1 µg/ml)
[21]
  EC50 (read off the curve): ~0.02 µg/mL

B9: 11G06-huIgG1 (antibody, V domains shown)
VH: QVQLVQSGAEVKKPGSSVKVSCKASGGTFSSYAISWVRQAPGQGLEWMGGIIPIFGTANYAQKFQGRVTITADKSTSTAYMELSSLRSEDTAVYYCARTGPYYGAFDYWGQGTTVTVSS
VL: DIQMTQSPSTLSASVGDRVTITCRASQSISSWLAWYQQKPGKAPKLLIYDASSLESGVPSRFSGSGSGTEFTLTISSLQPDDFATYYCQQGFRGYTFGQGTKVEIK
notes: also called 11G06-IgG
[22]
  binding result: binds

B10: CD3 binder V9 (antibody, V domains shown)
VH: EVQLVESGGGLVQPGGSLRLSCAASGYSFTGYTMNWVRQAPGKGLEWVALINPYKGVSTYNQKFKDRFTISVDKSKNTAYLQMNSLRAEDTAVYYCARSGYYGDSDWYFDVWGQGTLVTVSS
VL: DIQMTQSPSSLSASVGDRVTITCRASQDIRNYLNWYQQKPGKAPKLLIYYTSRLESGVPSRFSGSGSGTDYTLTISSLQPEDFATYYCQQGNTLPWTFGQGTKVEIK
CD3
  Kd: 35 to 50 nM
